Measured values as given in article PMC7193532 (Acta Crystallographica. Section D, Structural Biology, 2020).
pKd: −log10 of the molar value.

What was measured:
Assay in all cases: SPR
rufomycin I (RUF-I) = conditions: read off a plot
ohmyungsamycin A (OMS-A) = conditions: read off a plot
ecumicin (ECU) = conditions: read off a plot
[1] = target: ClpC1-NTD MAFER (Mycobacterium tuberculosis) (UniProt P9WPC9)
[2] = target: ClpC1-FL mutant K85A (Mycobacterium tuberculosis) (UniProt P9WPC9)
[3] = target: ClpC1-FL mutant L92S/L96P (Mycobacterium tuberculosis) (UniProt P9WPC9)
[4] = target: ClpC1-FL mutant Q17A (Mycobacterium tuberculosis) (UniProt P9WPC9)
[5] = target: ClpC1-FL mutant V14A (Mycobacterium tuberculosis) (UniProt P9WPC9)
[6] = target: ClpC1-NTD N-terminal mutant FER (residues 2-145) (Mycobacterium tuberculosis) (UniProt P9WPC9)
[7] = target: ClpC1-NTD N-terminal mutant MVFER (Mycobacterium tuberculosis) (UniProt P9WPC9)

Question: “full-length ClpC1 (ClpC1-FL) (from UniProt P9WPC9) L92S; L96P” was tested. Which pKd (rufomycin I (RUF-I); parent: est. 87 nM) did it give?
Answer: The pKd was 6.59.

Question: With “ClpC1-NTD (SPR construct, His6-SUMO tag cleaved) (from UniProt P9WPC9) MVAFER (ValAla inserted before Phe2)” as the substance, how does the pKd (rufomycin I (RUF-I); parent: est. 68 nM) read?
Answer: Its pKd is 6.05.

Question: Which results are given for “full-length ClpC1 (ClpC1-FL) (from UniProt P9WPC9) V14A”?
Answer: pKd (ohmyungsamycin A (OMS-A); parent: est. 350 nM): 5.80; pKd (rufomycin I (RUF-I); parent: est. 87 nM): 6.20

Question: How did the pKd (ecumicin (ECU); parent: est. 51 nM) turn out when “ClpC1-NTD (SPR construct, His6-SUMO tag cleaved) (from UniProt P9WPC9) MVFER (Val inserted before Phe2)” was run?
Answer: Its pKd is 5.39.

Question: What does the source list for “full-length ClpC1 (ClpC1-FL) (from UniProt P9WPC9) K85A”?
Answer: pKd (ecumicin (ECU); parent: est. 68 nM): 6.24; pKd (ohmyungsamycin A (OMS-A); parent: est. 350 nM): 5.80; pKd (rufomycin I (RUF-I); parent: est. 87 nM): 6.38

Question: Which results are given for “ClpC1-NTD (SPR construct, His6-SUMO tag cleaved) (from UniProt P9WPC9) AAFER (Met1Ala mutation and Ala insertion)”?
Answer: pKd (ecumicin (ECU); parent: est. 51 nM): 5.48; pKd (ohmyungsamycin A (OMS-A); parent: est. 400 nM): 5.04; pKd (rufomycin I (RUF-I); parent: est. 68 nM): 5.92

Question: How did the pKd [1] turn out when ecumicin (peptide) was run?
Answer: The pKd was 5.46.

Question: rufomycin I (RUF-I) (peptide) was tested. Which fold reduction in binding affinity against wild type [2] did it give?
Answer: Its fold reduction in binding affinity against wild type is 5 fold.

Question: What about the fold reduction in binding affinity against wild type [3] of the same substance?
Answer: Its fold reduction in binding affinity against wild type is 3 fold.

Question: What about the fold reduction in binding against wild type [4] of the same substance?
Answer: The fold reduction in binding against wild type was 17 fold.

Question: And the fold reduction in binding affinity against wild type [5]?
Answer: Its fold reduction in binding affinity against wild type is 8 fold.

Question: And the fold reduction in binding against wild type [6]?
Answer: The fold reduction in binding against wild type was 5 fold.

Question: And the fold reduction in binding affinity against wild type [7]?
Answer: The fold reduction in binding affinity against wild type was 6 fold.

Question: Which results are given for “full-length ClpC1 (ClpC1-FL) (from UniProt P9WPC9) Q17A”?
Answer: pKd (ohmyungsamycin A (OMS-A); parent: est. 350 nM): 5.89; pKd (rufomycin I (RUF-I); parent: est. 87 nM): 5.85

Question: Which results are given for “ClpC1-NTD (SPR construct, His6-SUMO tag cleaved) (from UniProt P9WPC9) M1del (FER)”?
Answer: pKd (ohmyungsamycin A (OMS-A); parent: est. 400 nM): 5.31; pKd (rufomycin I (RUF-I); parent: est. 68 nM): 6.44

Question: “ClpC1-NTD (SPR construct, His6-SUMO tag cleaved) (from UniProt P9WPC9) MAF (MAFER: Ala inserted before Phe2)” was tested. Which pKd (ecumicin (ECU); parent: est. 51 nM) did it give?
Answer: Its pKd is 5.42.

Question: And the pKd (ohmyungsamycin A (OMS-A); parent: est. 400 nM)?
Answer: Its pKd is 5.02.
